Data as given in patent US20090312236A1.

Biological target: human IGF-1 receptor (human) (UniProt P08069)
Assay: competitive radioligand SPA, [125I]IGF-1, hIGF-1R membranes

For “insulin lispro (ligand; other documents disagree on this pair)”, the Ki was greater than 75 nM.
